Changes are numbered by the printed parent chain.
T1: SF3A1-UBL WT (human, UniProt Q15459 704-793)
T1 sequence: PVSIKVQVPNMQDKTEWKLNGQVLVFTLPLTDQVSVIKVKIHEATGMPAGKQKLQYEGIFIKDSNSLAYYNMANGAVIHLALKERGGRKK

T2: SF3A1-UBL K754A (human, UniProt Q15459 704-793, K754A)
T2 sequence: T1 sequence with K51A

T3: SF3A1-UBL K717A (human, UniProt Q15459 704-793, K717A)
T3 sequence: T1 sequence with K14A

T4: SF3A1-UBL G790I (human, UniProt Q15459 704-793, G790I)
T4 sequence: T1 sequence with G87I

T5: SF3A1-UBL G789I (human, UniProt Q15459 704-793, G789I)
T5 sequence: T1 sequence with G86I

T6: SF3A1-UBL R791A (human, UniProt Q15459 704-793, R791A)
T6 sequence: T1 sequence with R88A

T7: SF3A1-UBL F763A (human, UniProt Q15459 704-793, F763A)
T7 sequence: T1 sequence with F60A

T8: SF3A1-UBL K765A (human, UniProt Q15459 704-793, K765A)
T8 sequence: T1 sequence with K62A


Tests used:
SF3A1-UBL WT [1] = biological target: T1, SF3A1-UBL WT; test: SPR
SF3A1-UBL K754A = biological target: T2, SF3A1-UBL K754A; test: SPR
SF3A1-UBL K717A = biological target: T3, SF3A1-UBL K717A; test: SPR
SF3A1-UBL G790I = biological target: T4, SF3A1-UBL G790I; test: SPR
SF3A1-UBL G789I = biological target: T5, SF3A1-UBL G789I; test: SPR
SF3A1-UBL R791A = biological target: T6, SF3A1-UBL R791A; test: SPR
SF3A1-UBL F763A = biological target: T7, SF3A1-UBL F763A; test: SPR
SF3A1-UBL K765A = biological target: T8, SF3A1-UBL K765A; test: SPR
SF3A1-UBL WT [2] = biological target: T1, SF3A1-UBL WT; test: NMR

| Binder | Kd (SF3A1-UBL WT [1]) | Kd (SF3A1-UBL K754A) | Kd (SF3A1-UBL K717A) | Kd (SF3A1-UBL G790I) | Kd (SF3A1-UBL G789I) | Kd (SF3A1-UBL R791A) | Kd (SF3A1-UBL F763A) | Kd (SF3A1-UBL K765A) | binding result (SF3A1-UBL WT [2]) |
| --- | --- | --- | --- | --- | --- | --- | --- | --- | --- |
| GGGGACUGCGUUCGCGCUUUCCCC (structured_RNA) [Biotin-U1-SL4-WT] | 332 ± 30 nM | 16.7 ± 4.38 µM | 1590 ± 270 nM | 14.1 ± 3.12 µM | 41.9 ± 5.7 µM | 5.97 ± 0.5 µM | 2760 ± 300 nM | 7.89 ± 0.71 µM |  |
| GGGACUGCGUUCGCGCUUUCCC (structured_RNA) [22 nt U1-SL4] |  |  |  |  |  |  |  |  | binds |
